In article PMC12121223 one finds cellular uptake of fluorescently labelled FGF1WT into U2OS-R1 cells in the presence of heparin, quantitative confocal microscopy (normalized RSI) data, which are given here for one substance.

This test has as its target extracellular region of FGFR1 fused to the Fc fragment of human IgG1 (UniProt P11362).
UniProt P11362, sequence (P11362 22-376): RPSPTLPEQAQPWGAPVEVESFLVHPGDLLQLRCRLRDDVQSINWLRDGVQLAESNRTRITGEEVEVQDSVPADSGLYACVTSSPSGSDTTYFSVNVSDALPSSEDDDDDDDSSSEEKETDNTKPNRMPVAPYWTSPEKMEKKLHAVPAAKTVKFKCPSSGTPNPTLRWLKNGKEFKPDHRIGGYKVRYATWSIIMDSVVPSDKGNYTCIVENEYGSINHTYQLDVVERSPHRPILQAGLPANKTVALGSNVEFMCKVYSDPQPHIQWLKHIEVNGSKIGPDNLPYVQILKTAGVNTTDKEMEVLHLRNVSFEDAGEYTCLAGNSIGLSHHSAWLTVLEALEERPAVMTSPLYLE

On to “truncated wild-type FGF1 (Met-Ala-FGF1 21-154) (ligand)”, for which the cellular uptake of fluorescently labelled FGF1WT into U2OS-R1 cells in the presence of heparin, quantitative confocal microscopy (normalized RSI) is 25.2%.
